Test results taken from EP3444273A1 (Medicinal Bioconvergence Research Center, dated 2019).
Ends that are not written are not given here.

T1: BSA-conjugated AIMP2-DX2 antigen peptide (human, not fully specified (residue 12); also: C-terminal Cys conjugated to BSA carrier)
T1 construct: The BSA carrier is not written as a chain; also called AIMP2-DX2 antigen peptide (the same peptide used in the rabbit immunization, conjugated to BSA)
T1 peptide: GHVQDYGALKDC

T2: wild-type AIMP2 protein (human, UniProt Q13155 1-320)
T2 construct: Endogenous protein of H460 cell lysate; also called wild-type (WT) AIMP2
T2 sequence (looked up): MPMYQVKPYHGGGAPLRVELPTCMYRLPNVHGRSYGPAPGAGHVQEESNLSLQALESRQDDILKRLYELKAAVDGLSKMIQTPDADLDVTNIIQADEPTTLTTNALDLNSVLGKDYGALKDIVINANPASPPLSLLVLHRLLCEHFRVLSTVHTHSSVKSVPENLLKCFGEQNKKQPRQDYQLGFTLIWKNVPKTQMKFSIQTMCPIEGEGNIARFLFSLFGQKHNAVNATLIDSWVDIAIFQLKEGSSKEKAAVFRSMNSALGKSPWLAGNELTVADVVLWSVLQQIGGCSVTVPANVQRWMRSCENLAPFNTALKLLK

T3: AIMP2-DX2 antigen peptide (human, not fully specified)
T3 construct: Used in solution for pre-adsorption in Western blots (100 ug/ml) and as analyte in SPR
T3 peptide: GHVQDYGALKD

B1: H5 Fab (Fab, V domains shown)
VH: QEQLVESGGGLVTPGGTLTLTCTASGFTISSYHMTWVRQAPGKGLEWIGVISNSGGTSYANWAKGRFTISKTSTTVDLKITSPTTEDTATYFCVRGVPGINSNLWGQGTLVTISS
VL: AQVLTQTPSSVSAAVGGTVTINCQSSQSVYSGNWLAWYQQKPGQPPKLLIYSTSTLASGVPSRFKGSGSGTQFTLTVSDLECDDAATYYCAGDYDGYKNAFGGGTKVVVKR
notes: Expressed from pComb3XTT in E. coli and used as periplasmic extract; Detected with anti-HA tag or anti-human Fab secondary antibody, so a tag may be present; also called antibody (Fab) of clone H5; rabbit/human chimeric Fab
B2: H5 IgG antibody (antibody, V domains shown)
VH: B1 VH
VL: B1 VL
notes: also called H5 antibody (IgG); H5 antibody

Tests used:
[1] = target: T1, BSA-conjugated AIMP2-DX2 antigen peptide; experiment: ELISA, plate coated with BSA-conjugated antigen peptide, periplasmic extract
[2] = target: T2, wild-type AIMP2 protein; experiment: Western blot of H460 cell lysate
[3] = target: T3, AIMP2-DX2 antigen peptide; experiment: antigen pre-adsorption, Western blot of HEK293T lysate, peptide at 100 ug/ml
[4] = target: T3, AIMP2-DX2 antigen peptide; experiment: SPR, H5 IgG coated on CM5 chip, peptide flowed at various concentrations

Binder	binding result [1]	binding result [2]	binding result [3]	binding result [4]
B1	binds	no binding	binds	
B2				binds
